In patent US20230212549A1 (3B PHARMACEUTICALS, published 2023):
Several values for one entry are separate records, joined by “and”; a condition that tells them apart may be missing. Identical values can stand only once. Numbered stars: 1 amine (or outer) side, 2 acyl side, 3 side chain; on linkers, the order of the positions; unused ones are H or OH. Bridge positions count the residues as written; N and C are the ends. Square brackets hold non-standard residues; d marks the D form. Primed or numbered codes have the meaning given here. * marks the point of attachment. Ttds″ = 1,13-diamino-4,7,10-trioxatridecan-succinamic acid spacer, O=C(CCC(=O)[*:2])NCCCOCCOCCOCCCN[*:1]; TBMB(SCH2CH2NH-DOTA) = O=C(O)CN1CCN(CC(=O)O)CCN(CC(=O)NCCSCc2cc(C[*:1])cc(C[*:2])c2)CCN(CC(=O)O)CC1; Biotin = O=C1N[C@H]2[C@H](CS[C@H]2CCCCC(=O)*)N1; mXylylene = c1cc(C[*:1])cc(C[*:2])c1; Pentanesulfonyl = CCCCCS(=O)(=O)*; Hexanoyl = CCCCCC(=O)*; GABA = NCCCC(=O)O; βAla = NCCC(=O)O; Sar = CNCC(=O)O

B1: Pentyl-SO2-[Cys(tMeBn(DOTA-AET))-Pro-Pro-Thr-Glu-Phe-Cys]-OH (peptide)
peptide: Pentanesulfonyl-CPPTEFC-OH
modifications: linker 1-7 via TBMB(SCH2CH2NH-DOTA)
SMILES: CCCCCS(=O)(=O)N[C@H]1CSCc2cc(CSCCNC(=O)CN3CCN(CC(=O)O)CCN(CC(=O)O)CCN(CC(=O)O)CC3)cc(c2)CSC[C@@H](C(=O)O)NC(=O)[C@H](Cc2ccccc2)NC(=O)[C@H](CCC(=O)O)NC(=O)[C@H]([C@@H](C)O)NC(=O)[C@@H]2CCCN2C(=O)[C@@H]2CCCN2C1=O
notes: also called 3BP-3691
B2: Hex-[Cys(tMeBn(DOTA-AET))-Pro-Pro-Thr-Gln-Phe-AET] (peptide)
peptide: CPPTQFX
modifications: not fully specified; N-term Hex; X7 = AET (2-aminoethanethiol, no carboxyl group); Cys1/AET7 thioether-bridged by tMeBn carrying DOTA-AET
notes: also called 3BP-3654
B3: Hex-[Cys(tMeBn(DOTA-AET))-Nmg-Pro-Thr-Gln-Phe-Cys]-OH (peptide)
peptide: Hexanoyl-C[Sar]PTQFC-OH
modifications: linker 1-7 via TBMB(SCH2CH2NH-DOTA)
SMILES: CCCCCC(=O)N[C@H]1CSCc2cc(CSCCNC(=O)CN3CCN(CC(=O)O)CCN(CC(=O)O)CCN(CC(=O)O)CC3)cc(c2)CSC[C@@H](C(=O)O)NC(=O)[C@H](Cc2ccccc2)NC(=O)[C@H](CCC(N)=O)NC(=O)[C@H]([C@@H](C)O)NC(=O)[C@@H]2CCCN2C(=O)CN(C)C1=O
notes: also called 3BP-3678
B4: Hex-[Cys(3MeBn)-Pro-Pro-Thr-Glu-Phe-Cys]-Asp-His-Phe-Arg-Asp-NH2 (peptide)
peptide: Hexanoyl-CPPTEFCDHFRD-NH2
modifications: linker 1-7 via mXylylene
SMILES: CCCCCC(=O)N[C@H]1CSCc2cccc(c2)CSC[C@@H](C(=O)N[C@@H](CC(=O)O)C(=O)N[C@@H](Cc2c[nH]cn2)C(=O)N[C@@H](Cc2ccccc2)C(=O)N[C@@H](CCCNC(=N)N)C(=O)N[C@@H](CC(=O)O)C(N)=O)NC(=O)[C@H](Cc2ccccc2)NC(=O)[C@H](CCC(=O)O)NC(=O)[C@H]([C@@H](C)O)NC(=O)[C@@H]2CCCN2C(=O)[C@@H]2CCCN2C1=O
B5: Hex-[Cys(tMeBn(DOTA-AET))-Pro-Pro-Thr-Gln-Mpa-Cys]-OH (peptide)
peptide: Hexanoyl-CPPTQXC-OH
modifications: linker 1-7 via TBMB(SCH2CH2NH-DOTA); not fully specified (residue 6); printed as Hex-[Cys(tMeBn(DOTA-AET))-Pro-Pro-Thr-Gln-Mpa-Cys]-OH
notes: also called 3BP-3664
B6: Hex-[Cys(3MeBn)-Pro-Pro-Thr-Glu-Phe-Cys]-Bal-OH (peptide)
peptide: Hexanoyl-CPPTEFC[βAla]-OH
modifications: linker 1-7 via mXylylene
SMILES: CCCCCC(=O)N[C@H]1CSCc2cccc(c2)CSC[C@@H](C(=O)NCCC(=O)O)NC(=O)[C@H](Cc2ccccc2)NC(=O)[C@H](CCC(=O)O)NC(=O)[C@H]([C@@H](C)O)NC(=O)[C@@H]2CCCN2C(=O)[C@@H]2CCCN2C1=O
notes: also called 3BP-3371
B7: Ac-Met-[Cys(3MeBn)-Pro-Pro-Thr-Glu-Phe-Cys]-Asp-His-Phe-Arg-Asp-NH2 (peptide)
peptide: Ac-MCPPTEFCDHFRD-NH2
modifications: linker 2-8 via mXylylene
SMILES: CSCC[C@H](NC(C)=O)C(=O)N[C@H]1CSCc2cccc(c2)CSC[C@@H](C(=O)N[C@@H](CC(=O)O)C(=O)N[C@@H](Cc2c[nH]cn2)C(=O)N[C@@H](Cc2ccccc2)C(=O)N[C@@H](CCCNC(=N)N)C(=O)N[C@@H](CC(=O)O)C(N)=O)NC(=O)[C@H](Cc2ccccc2)NC(=O)[C@H](CCC(=O)O)NC(=O)[C@H]([C@@H](C)O)NC(=O)[C@@H]2CCCN2C(=O)[C@@H]2CCCN2C1=O
notes: also called 3BP-2975
B8: Ac-Met-[Cys(3MeBn)-Pro-Pro-Thr-Glu-Phe-Cys]-Asp-His-Phe-Arg-Ala-NH2 (peptide)
peptide: Ac-MCPPTEFCDHFRA-NH2
modifications: linker 2-8 via mXylylene
SMILES: CSCC[C@H](NC(C)=O)C(=O)N[C@H]1CSCc2cccc(c2)CSC[C@@H](C(=O)N[C@@H](CC(=O)O)C(=O)N[C@@H](Cc2c[nH]cn2)C(=O)N[C@@H](Cc2ccccc2)C(=O)N[C@@H](CCCNC(=N)N)C(=O)N[C@@H](C)C(N)=O)NC(=O)[C@H](Cc2ccccc2)NC(=O)[C@H](CCC(=O)O)NC(=O)[C@H]([C@@H](C)O)NC(=O)[C@@H]2CCCN2C(=O)[C@@H]2CCCN2C1=O
notes: also called 3BP-3198
B9: Ac-Met-[Cys(3MeBn)-Gly-Pro-Thr-Glu-Phe-Cys]-Asp-His-Phe-Arg-Asp-NH2 (peptide)
peptide: Ac-MCGPTEFCDHFRD-NH2
modifications: linker 2-8 via mXylylene
SMILES: CSCC[C@H](NC(C)=O)C(=O)N[C@H]1CSCc2cccc(c2)CSC[C@@H](C(=O)N[C@@H](CC(=O)O)C(=O)N[C@@H](Cc2c[nH]cn2)C(=O)N[C@@H](Cc2ccccc2)C(=O)N[C@@H](CCCNC(=N)N)C(=O)N[C@@H](CC(=O)O)C(N)=O)NC(=O)[C@H](Cc2ccccc2)NC(=O)[C@H](CCC(=O)O)NC(=O)[C@H]([C@@H](C)O)NC(=O)[C@@H]2CCCN2C(=O)CNC1=O
notes: also called 3BP-3214
B10: Ac-Met-[Cys(3MeBn)-Pro-Pro-Thr-Glu-Phe-Cys]-Asp-His-Ala-Arg-Asp-NH2 (peptide)
peptide: Ac-MCPPTEFCDHARD-NH2
modifications: linker 2-8 via mXylylene
SMILES: CSCC[C@H](NC(C)=O)C(=O)N[C@H]1CSCc2cccc(c2)CSC[C@@H](C(=O)N[C@@H](CC(=O)O)C(=O)N[C@@H](Cc2c[nH]cn2)C(=O)N[C@@H](C)C(=O)N[C@@H](CCCNC(=N)N)C(=O)N[C@@H](CC(=O)O)C(N)=O)NC(=O)[C@H](Cc2ccccc2)NC(=O)[C@H](CCC(=O)O)NC(=O)[C@H]([C@@H](C)O)NC(=O)[C@@H]2CCCN2C(=O)[C@@H]2CCCN2C1=O
notes: also called 3BP-3196
B11: Ac-Met-[Cys(3MeBn)-Pro-Pro-Thr-Glu-Phe-Cys]-Asp-Ala-Phe-Arg-Asp-NH2 (peptide)
peptide: Ac-MCPPTEFCDAFRD-NH2
modifications: linker 2-8 via mXylylene
SMILES: CSCC[C@H](NC(C)=O)C(=O)N[C@H]1CSCc2cccc(c2)CSC[C@@H](C(=O)N[C@@H](CC(=O)O)C(=O)N[C@@H](C)C(=O)N[C@@H](Cc2ccccc2)C(=O)N[C@@H](CCCNC(=N)N)C(=O)N[C@@H](CC(=O)O)C(N)=O)NC(=O)[C@H](Cc2ccccc2)NC(=O)[C@H](CCC(=O)O)NC(=O)[C@H]([C@@H](C)O)NC(=O)[C@@H]2CCCN2C(=O)[C@@H]2CCCN2C1=O
notes: also called 3BP-3195
B12: Hex-[Cys(3MeBn)-Pro-Pro-Thr-Glu-Phe-Cys]-Asp-Gab-Arg-NH2 (peptide)
peptide: Hexanoyl-CPPTEFCD[GABA]R-NH2
modifications: linker 1-7 via mXylylene
SMILES: CCCCCC(=O)N[C@H]1CSCc2cccc(c2)CSC[C@@H](C(=O)N[C@@H](CC(=O)O)C(=O)NCCCC(=O)N[C@@H](CCCNC(=N)N)C(N)=O)NC(=O)[C@H](Cc2ccccc2)NC(=O)[C@H](CCC(=O)O)NC(=O)[C@H]([C@@H](C)O)NC(=O)[C@@H]2CCCN2C(=O)[C@@H]2CCCN2C1=O
notes: also called 3BP-3300
B13: H-Met-[Cys(3MeBn)-Pro-Pro-Thr-Glu-Phe-Cys]-Asp-His-Phe-Arg-Asp-Ttds-Lys(Bio)-NH2 (peptide)
peptide: H-MCPPTEFCDHFRD[Ttds″]K(Biotin)-NH2
modifications: linker 2-8 via mXylylene
SMILES: CSCC[C@H](N)C(=O)N[C@H]1CSCc2cccc(c2)CSC[C@@H](C(=O)N[C@@H](CC(=O)O)C(=O)N[C@@H](Cc2c[nH]cn2)C(=O)N[C@@H](Cc2ccccc2)C(=O)N[C@@H](CCCNC(=N)N)C(=O)N[C@@H](CC(=O)O)C(=O)NCCCOCCOCCOCCCNC(=O)CCC(=O)N[C@@H](CCCCNC(=O)CCCC[C@@H]2SC[C@@H]3NC(=O)N[C@@H]32)C(N)=O)NC(=O)[C@H](Cc2ccccc2)NC(=O)[C@H](CCC(=O)O)NC(=O)[C@H]([C@@H](C)O)NC(=O)[C@@H]2CCCN2C(=O)[C@@H]2CCCN2C1=O
notes: also called 3BP-2881

target: T1, fibroblast activation protein (FAP) on FAP-expressing human WI-38 fibroblasts (human, UniProt Q12884 1-760); test: competitive FACS, WI-38 cells, vs Cy5 tracer m3; A = pIC50 >8.0
T1 construct: also called human FAP

Binder	pIC50 Category (FACS)
B1	> 8 pIC50
B2	> 8 pIC50
B3	> 8 pIC50
B4	> 8 pIC50
B5	> 8 pIC50
B6	> 8 pIC50
B7	> 8 pIC50
B8	> 8 pIC50
B9	> 8 pIC50
B10	> 8 pIC50
B11	> 8 pIC50
B12	> 8 pIC50
B13	> 8 pIC50

target: Recombinant human FAP (R&D systems, #3715-SE) (human, UniProt Q12884 26-760); test: cell-based or functional assay

Binder	pIC50 Category (Activity)
B1	7.1 pIC50 and 8 pIC50
B2	> 8 pIC50
B3	> 8 pIC50
B4	> 8 pIC50
B5	> 8 pIC50
B6	7.1 pIC50 and 8 pIC50
B7	> 8 pIC50
B8	> 8 pIC50
B9	> 8 pIC50
B10	> 8 pIC50
B11	7.1 pIC50 and 8 pIC50
B12	> 8 pIC50
B13	> 8 pIC50
